Tests used:
Test in all cases: SPR, captured hENG-hFc, soluble BMP10; '-' = Binding undetectable
hENG(26-332)-hFc = target: T1, hENG(26-332)-hFc (human, UniProt P17813 26-332)
T1 construct: HEK 293, purified; not shown: linker and human IgG1 Fc domain
T1 sequence: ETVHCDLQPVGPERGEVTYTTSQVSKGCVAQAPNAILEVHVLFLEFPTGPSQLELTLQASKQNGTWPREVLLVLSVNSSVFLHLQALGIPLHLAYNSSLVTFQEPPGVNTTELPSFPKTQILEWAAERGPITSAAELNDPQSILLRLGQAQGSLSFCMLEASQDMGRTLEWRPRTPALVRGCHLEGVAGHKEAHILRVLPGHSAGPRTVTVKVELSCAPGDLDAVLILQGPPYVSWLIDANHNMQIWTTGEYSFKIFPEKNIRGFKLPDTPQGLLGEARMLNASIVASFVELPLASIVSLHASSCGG
Experimental: (§1) SPR methodology was used to screen these hENG-hFc protein variants for high-affinity binding to human BMP9 and BMP10. In these experiments, captured hENG-hFc proteins were exposed to soluble BMP9 or BMP10 at 100 nM each.

hENG(26-329)-hFc = target: T2, hENG(26-329)-hFc (human, UniProt P17813 26-329)
T2 construct: HEK 293, purified; not shown: linker and human IgG1 Fc domain
T2 sequence: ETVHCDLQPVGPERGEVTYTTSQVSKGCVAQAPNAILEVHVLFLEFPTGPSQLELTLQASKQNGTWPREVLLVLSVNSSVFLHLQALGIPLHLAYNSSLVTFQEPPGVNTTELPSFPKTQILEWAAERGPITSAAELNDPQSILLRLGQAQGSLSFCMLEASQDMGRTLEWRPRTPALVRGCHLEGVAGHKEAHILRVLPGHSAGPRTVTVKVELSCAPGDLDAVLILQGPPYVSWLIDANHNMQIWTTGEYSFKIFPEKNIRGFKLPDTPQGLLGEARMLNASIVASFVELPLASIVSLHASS
Experimental: as §1

hENG(26-257)-hFc = target: T3, hENG(26-257)-hFc (human, UniProt P17813 26-257)
T3 construct: HEK 293, purified; not shown: linker and human IgG1 Fc domain
T3 sequence: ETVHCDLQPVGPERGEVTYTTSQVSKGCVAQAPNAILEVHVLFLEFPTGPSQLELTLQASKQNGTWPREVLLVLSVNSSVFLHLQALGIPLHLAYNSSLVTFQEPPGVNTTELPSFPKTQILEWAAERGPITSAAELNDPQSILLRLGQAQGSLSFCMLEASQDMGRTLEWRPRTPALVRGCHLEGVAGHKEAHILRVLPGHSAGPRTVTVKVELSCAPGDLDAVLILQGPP
Experimental: as §1

hENG(438-586)-hFc = target: T4, hENG(438-586)-hFc (human, UniProt P17813 438-586)
T4 construct: HEK 293, purified; not shown: linker and human IgG1 Fc domain
T4 sequence: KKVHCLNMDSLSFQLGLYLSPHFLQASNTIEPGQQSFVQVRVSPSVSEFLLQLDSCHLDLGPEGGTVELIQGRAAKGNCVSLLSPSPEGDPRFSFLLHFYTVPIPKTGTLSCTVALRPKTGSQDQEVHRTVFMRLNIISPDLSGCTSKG
Experimental: as §1

hENG(458-586)-hFc = target: T5, hENG(458-586)-hFc (human, UniProt P17813 458-586)
T5 construct: Expressed in COS cells, not purified; not shown: linker and human IgG1 Fc domain
T5 sequence: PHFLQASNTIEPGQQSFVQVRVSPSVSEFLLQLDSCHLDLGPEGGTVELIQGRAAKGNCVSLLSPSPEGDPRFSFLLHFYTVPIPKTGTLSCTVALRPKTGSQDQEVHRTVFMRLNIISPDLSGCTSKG
Experimental: as §1

hENG(61-346)-hFc = target: T6, hENG(61-346)-hFc (human, UniProt P17813 61-346)
T6 construct: HEK 293, purified; not shown: linker and human IgG1 Fc domain
T6 sequence: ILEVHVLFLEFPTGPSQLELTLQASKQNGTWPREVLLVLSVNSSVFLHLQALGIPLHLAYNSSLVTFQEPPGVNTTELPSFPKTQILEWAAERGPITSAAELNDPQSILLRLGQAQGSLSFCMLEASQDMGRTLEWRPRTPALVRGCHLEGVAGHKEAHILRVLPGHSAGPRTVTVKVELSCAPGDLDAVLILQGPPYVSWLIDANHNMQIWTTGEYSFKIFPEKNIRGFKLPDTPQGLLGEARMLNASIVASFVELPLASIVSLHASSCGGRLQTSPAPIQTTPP
Experimental: as §1

hENG(129-346)-hFc = target: T7, hENG(129-346)-hFc (human, UniProt P17813 129-346)
T7 construct: HEK 293, purified; not shown: linker and human IgG1 Fc domain
T7 sequence: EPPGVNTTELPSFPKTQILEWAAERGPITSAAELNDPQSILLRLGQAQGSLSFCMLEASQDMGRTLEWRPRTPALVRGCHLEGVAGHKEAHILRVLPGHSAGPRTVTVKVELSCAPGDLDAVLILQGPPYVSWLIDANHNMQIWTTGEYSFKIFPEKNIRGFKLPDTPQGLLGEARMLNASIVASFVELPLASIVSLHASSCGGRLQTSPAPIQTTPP
Experimental: as §1

hENG(166-346)-hFc = target: T8, hENG(166-346)-hFc (human, UniProt P17813 166-346)
T8 construct: HEK 293, purified; not shown: linker and human IgG1 Fc domain
T8 sequence: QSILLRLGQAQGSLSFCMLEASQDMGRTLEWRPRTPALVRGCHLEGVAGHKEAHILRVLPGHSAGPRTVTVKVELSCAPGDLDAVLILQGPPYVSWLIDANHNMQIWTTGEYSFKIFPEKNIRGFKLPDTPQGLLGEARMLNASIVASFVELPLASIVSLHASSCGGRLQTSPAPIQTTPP
Experimental: as §1

hENG(360-581)-hFc = target: T9, hENG(360-581)-hFc (human, UniProt P17813 360-581)
T9 construct: HEK 293, purified; not shown: linker and human IgG1 Fc domain
T9 sequence: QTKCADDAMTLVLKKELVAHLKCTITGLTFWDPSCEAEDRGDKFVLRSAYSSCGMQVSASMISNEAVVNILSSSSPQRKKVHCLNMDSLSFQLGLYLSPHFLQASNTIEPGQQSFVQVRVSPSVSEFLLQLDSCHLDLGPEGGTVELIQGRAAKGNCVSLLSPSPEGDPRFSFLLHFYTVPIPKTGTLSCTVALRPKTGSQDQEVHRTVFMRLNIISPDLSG
Experimental: as §1

Measured: binding result

B1: BMP10 (ligand)
chain: NAKGNYCKRTPLYIDFKEIGWDSWIIAPPGYEAYECRGVCNYPLAEHLTPTKHAIIQALVHLKNSQKASKACCVPTKLEPISILYLDKGVVTYKFKYEGMAVSECGCR
notes: also called hBMP-10; hBMP10
no binding (tested: 100 nM): all assays above

Reference: patent US20200087367A1 (ACCELERON PHARMA, published 2020)
